Literature values as cited in article PMC8069034.

Molecular target: IL13 (Homo sapiens) (UniProt P35225)
Assay: SPR

IL13 (Homo sapiens), sequence (P35225 25-146): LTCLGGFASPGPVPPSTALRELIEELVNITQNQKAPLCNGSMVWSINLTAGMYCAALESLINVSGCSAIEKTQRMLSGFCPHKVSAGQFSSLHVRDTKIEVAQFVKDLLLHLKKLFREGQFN

Kd: 0.058 nM
Substance: tralokinumab
